{
  "source": "patent US20240035012A1",
  "about": "(WESTLAKE UNIVERSITY, published 2024)",
  "note": "Several values for one entry are separate records, joined by “and”; a condition that tells them apart may be missing. Equal entries are not always repeated.",
  "data": [
    {"target": "SARS-CoV-2 spike protein (SARS-CoV-2-S) (SARS-CoV-2, UniProt P0DTC2 14-1273)", "test": "cell-based or functional assay", "values": [
      {"binder": "ACE2 M2-AP15-foldon (receptor) QSTIEEQAKYFLDKFNHEAEDLFYQSSLASWNYNTNITEENVQNMNNAGDKWSAFLKEQSTYAQMYPLQEIQNLTVKLQLQALQQNGSSVLSEDKSKRLNTILNTMSTIYSTGKVCNPDNPQECLLLEPGLNEIMANSLDYNERLWAWESWRSEVGKQLRPLYEEYVVLKNEMARANHYEDYGDYWRGDYEVNGVDGYDYSRGQLIEDVEHTFEEIKPLYEHLHAYVRAKLMNAYPSYISPIGCLPAHLLGDMWGRFWTNLYSLTVPFGQKPNIDVTDAMVDQAWDAQRIFKEAEKFFVSVGLPNMTQGFWEYSMLTDPGNVQKAVCHPTAWDLGKGDFRILMCTKVTMDDFLTAHHEMGHIQYDMAYAAQPFLLRNGANEGFHEAVGEIMSLSAATPKHLKSIGLLSPDFQEDNETEINFLLKQALTIVGTLPFTYMLEKWRWMVFKGEIPKDQWMKKWWEMKREIVGVVEPVPHDETYCDPASLFHVSNDYSFIRYYTRTLYQFQFQEALCQAAKHEGPLHKCDISNSTEAGQKLFNMLRLGKSEPWTLALENVVGAKNMNVRPLLNYFEPLFTWLKDQNKNSFVGWSTDWSPYADGSAPAPAPAPAPAPAPAPAPAPAPAPAPAPAPGSGYIPEAPRDGQAYVRKDGEWVLLSTFL", "IC50, inhibition of SARS-CoV-2 pseudotyped virus (luciferase), Caco-2 cells": "0.071 µg/ml and 0.177 nM"},
      {"binder": "ACE2 M1-AP15-foldon (receptor) QSTIEEQAKTFLDFFNIQAEDLFYQSSLASWNYNTNITEENVQNMNNAGDKWSAFLKEQSTLAQMYPLQEIQNLTVKLQLQALQQNGSSVLSEDKSKRLNTILNTMSTIYSTGKVCNPDNPQECLLLEPGLNEIMANSLDYNERLWAWESWRSEVGKQLRPLYEEYVVLKNEMARANHYEDYGDYWRGDYEVNGVDGYDYSRGQLIEDVEHTFEEIKPLYEHLHAYVRAKLMNAYPSYISPIGCLPAHLLGDMWGRFWTNLYSLTVPFGQKPNIDVTDAMVDQAWDAQRIFKEAEKFFVSVGLPNMTQGFWENSMLTDPGNVQKAVCHPTAWDLGKGDFRILMCTKVTMDDFLTAHHEMGHIQYDMAYAAQPFLLRNGANEGFHEAVGEIMSLSAATPKHLKSIGLLSPDFQEDNETEINFLLKQALTIVGTLPFTYMLEKWRWMVFKGEIPKDQWMKKWWEMKREIVGVVEPVPHDETYCDPASLFHVSNDYSFIRYYTRTLYQFQFQEALCQAAKHEGPLHKCDISNSTEAGQKLFNMLRLGKSEPWTLALENVVGAKNMNVRPLLNYFEPLFTWLKDQNKNSFVGWSTDWSPYADGSAPAPAPAPAPAPAPAPAPAPAPAPAPAPAPGSGYIPEAPRDGQAYVRKDGEWVLLSTFL", "IC50, inhibition of SARS-CoV-2 pseudotyped virus (luciferase), Caco-2 cells": "0.202 µg/ml and 0.505 nM"},
      {"binder": "ACE2 M5-AP15-foldon (receptor) QSTIEEQAKYFLDKFNAEAEDLFYQSSLASWNYNTNITEENVQNMNNAGDKWSAFLKEQSTYAQMYPLQEIQNLTVKLQLQALQQNGSSVLSEDKSKRLNTILNTMSTIYSTGKVCNPDNPQECLLLEPGLNEIMANSLDYNERLWAWESWRSEVGKQLRPLYEEYVVLKNEMARANHYEDYGDYWRGDYEVNGVDGYDYSRGQLIEDVEHTFEEIKPLYEHLHAYVRAKLMNAYPSYISPIGCLPAHLLGDMWGRFWTNLYSLTVPFGQKPNIDVTDAMVDQAWDAQRIFKEAEKFFVSVGLPNMTQGFWEYSMLTDPGNVQKAVCHPTAWDLGKGDFRILMCTKVTMDDFLTAHHEMGHIQYDMAYAAQPFLLRNGANEGFHEAVGEIMSLSAATPKHLKSIGLLSPDFQEDNETEINFLLKQALTIVGTLPFTYMLEKWRWMVFKGEIPKDQWMKKWWEMKREIVGVVEPVPHDETYCDPASLFHVSNDYSFIRYYTRTLYQFQFQEALCQAAKHEGPLHKCDISNSTEAGQKLFNMLRLGKSEPWTLALENVVGAKNMNVRPLLNYFEPLFTWLKDQNKNSFVGWSTDWSPYADGSAPAPAPAPAPAPAPAPAPAPAPAPAPAPAPGSGYIPEAPRDGQAYVRKDGEWVLLSTFL", "IC50, inhibition of SARS-CoV-2 pseudotyped virus (luciferase), Caco-2 cells": "0.052 µg/ml and 0.13 nM"},
      {"binder": "ACE2 M4-AP15-foldon (receptor) QSTIEEQAKYFLDFFNIQAEDLFYQSSLASWNYNTNITEENVQNMNNAGDKWSAFLKEQSTYAQMYPLQEIQNLTVKLQLQALQQNGSSVLSEDKSKRLNTILNTMSTIYSTGKVCNPDNPQECLLLEPGLNEIMANSLDYNERLWAWESWRSEVGKQLRPLYEEYVVLKNEMARANHYEDYGDYWRGDYEVNGVDGYDYSRGQLIEDVEHTFEEIKPLYEHLHAYVRAKLMNAYPSYISPIGCLPAHLLGDMWGRFWTNLYSLTVPFGQKPNIDVTDAMVDQAWDAQRIFKEAEKFFVSVGLPNMTQGFWEYSMLTDPGNVQKAVCHPTAWDLGKGDFRILMCTKVTMDDFLTAHHEMGHIQYDMAYAAQPFLLRNGANEGFHEAVGEIMSLSAATPKHLKSIGLLSPDFQEDNETEINFLLKQALTIVGTLPFTYMLEKWRWMVFKGEIPKDQWMKKWWEMKREIVGVVEPVPHDETYCDPASLFHVSNDYSFIRYYTRTLYQFQFQEALCQAAKHEGPLHKCDISNSTEAGQKLFNMLRLGKSEPWTLALENVVGAKNMNVRPLLNYFEPLFTWLKDQNKNSFVGWSTDWSPYADGSAPAPAPAPAPAPAPAPAPAPAPAPAPAPAPGSGYIPEAPRDGQAYVRKDGEWVLLSTFL", "IC50, inhibition of SARS-CoV-2 pseudotyped virus (luciferase), Caco-2 cells": "0.071 µg/ml and 0.177 nM"}
    ]}
  ]
}
